Data from US20210139548A1 (published 2021).
*1 amine or outer side, *2 acyl side, *3 side chain or, on linkers, in order; H or OH if unused. Side-chain parts run from the residue outwards. The star is where a group is joined. C18 diacid = O=C(O)CCCCCCCCCCCCCCCCC(=O)*; γGlu = O=C(O)[C@H](CCC(=O)[*:2])N[*:1]; Isovaleryl = CC(C)CC(=O)*; AEEA = NCCOCCOCC(=O)O

T1: human neuropeptide Y2 receptor (human, UniProt P49146 1-381)
T1 construct: whole, on cells; also called hNPY2 receptor; hNPY2-R
T1 sequence (looked up): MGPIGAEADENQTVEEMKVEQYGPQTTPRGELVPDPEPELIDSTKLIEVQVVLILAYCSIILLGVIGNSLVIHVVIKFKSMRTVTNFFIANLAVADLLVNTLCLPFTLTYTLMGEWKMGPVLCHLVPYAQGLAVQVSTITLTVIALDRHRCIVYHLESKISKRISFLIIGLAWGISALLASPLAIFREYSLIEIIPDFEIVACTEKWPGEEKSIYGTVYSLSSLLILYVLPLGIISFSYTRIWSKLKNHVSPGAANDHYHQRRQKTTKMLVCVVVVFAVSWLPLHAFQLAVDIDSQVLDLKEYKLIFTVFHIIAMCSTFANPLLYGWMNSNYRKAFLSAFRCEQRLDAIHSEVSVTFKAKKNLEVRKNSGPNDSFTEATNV

B1: Compound 234 (peptide)
peptide: Isovaleryl-APAK([AEEA-AEEA-γGlu-C18 diacid])PEEEASPEELQRYYVSLRHYYNWLTRQRY-NH2
SMILES: CC(C)CC(=O)N[C@@H](C)C(=O)N1CCC[C@H]1C(=O)N[C@@H](C)C(=O)N[C@@H](CCCCNC(=O)COCCOCCNC(=O)COCCOCCNC(=O)CC[C@H](NC(=O)CCCCCCCCCCCCCCCCC(=O)O)C(=O)O)C(=O)N1CCC[C@H]1C(=O)N[C@@H](CCC(=O)O)C(=O)N[C@@H](CCC(=O)O)C(=O)N[C@@H](CCC(=O)O)C(=O)N[C@@H](C)C(=O)N[C@@H](CO)C(=O)N1CCC[C@H]1C(=O)N[C@@H](CCC(=O)O)C(=O)N[C@@H](CCC(=O)O)C(=O)N[C@@H](CC(C)C)C(=O)N[C@@H](CCC(N)=O)C(=O)N[C@@H](CCCNC(=N)N)C(=O)N[C@@H](Cc1ccc(O)cc1)C(=O)N[C@@H](Cc1ccc(O)cc1)C(=O)N[C@H](C(=O)N[C@@H](CO)C(=O)N[C@@H](CC(C)C)C(=O)N[C@@H](CCCNC(=N)N)C(=O)N[C@@H](Cc1c[nH]cn1)C(=O)N[C@@H](Cc1ccc(O)cc1)C(=O)N[C@@H](Cc1ccc(O)cc1)C(=O)N[C@@H](CC(N)=O)C(=O)N[C@@H](Cc1c[nH]c2ccccc12)C(=O)N[C@@H](CC(C)C)C(=O)N[C@H](C(=O)N[C@@H](CCCNC(=N)N)C(=O)N[C@@H](CCC(N)=O)C(=O)N[C@@H](CCCNC(=N)N)C(=O)N[C@@H](Cc1ccc(O)cc1)C(N)=O)[C@@H](C)O)C(C)C
B2: Compound 238 (peptide)
peptide: Isovaleryl-APEK([AEEA-AEEA-γGlu-C18 diacid])TEEEASPEELQRYYVSLRHYYNWLTRQRY-NH2
SMILES: CC(C)CC(=O)N[C@@H](C)C(=O)N1CCC[C@H]1C(=O)N[C@@H](CCC(=O)O)C(=O)N[C@@H](CCCCNC(=O)COCCOCCNC(=O)COCCOCCNC(=O)CC[C@H](NC(=O)CCCCCCCCCCCCCCCCC(=O)O)C(=O)O)C(=O)N[C@H](C(=O)N[C@@H](CCC(=O)O)C(=O)N[C@@H](CCC(=O)O)C(=O)N[C@@H](CCC(=O)O)C(=O)N[C@@H](C)C(=O)N[C@@H](CO)C(=O)N1CCC[C@H]1C(=O)N[C@@H](CCC(=O)O)C(=O)N[C@@H](CCC(=O)O)C(=O)N[C@@H](CC(C)C)C(=O)N[C@@H](CCC(N)=O)C(=O)N[C@@H](CCCNC(=N)N)C(=O)N[C@@H](Cc1ccc(O)cc1)C(=O)N[C@@H](Cc1ccc(O)cc1)C(=O)N[C@H](C(=O)N[C@@H](CO)C(=O)N[C@@H](CC(C)C)C(=O)N[C@@H](CCCNC(=N)N)C(=O)N[C@@H](Cc1c[nH]cn1)C(=O)N[C@@H](Cc1ccc(O)cc1)C(=O)N[C@@H](Cc1ccc(O)cc1)C(=O)N[C@@H](CC(N)=O)C(=O)N[C@@H](Cc1c[nH]c2ccccc12)C(=O)N[C@@H](CC(C)C)C(=O)N[C@H](C(=O)N[C@@H](CCCNC(=N)N)C(=O)N[C@@H](CCC(N)=O)C(=O)N[C@@H](CCCNC(=N)N)C(=O)N[C@@H](Cc1ccc(O)cc1)C(N)=O)[C@@H](C)O)C(C)C)[C@@H](C)O
B3: Compound 241 (peptide)
peptide: Isovaleryl-APEK([AEEA-AEEA-γGlu-C18 diacid])PEEEASPEEIQRYYVSLRHYYNWLTRQRY-NH2
SMILES: CC[C@H](C)[C@H](NC(=O)[C@H](CCC(=O)O)NC(=O)[C@H](CCC(=O)O)NC(=O)[C@@H]1CCCN1C(=O)[C@H](CO)NC(=O)[C@H](C)NC(=O)[C@H](CCC(=O)O)NC(=O)[C@H](CCC(=O)O)NC(=O)[C@H](CCC(=O)O)NC(=O)[C@@H]1CCCN1C(=O)[C@H](CCCCNC(=O)COCCOCCNC(=O)COCCOCCNC(=O)CC[C@H](NC(=O)CCCCCCCCCCCCCCCCC(=O)O)C(=O)O)NC(=O)[C@H](CCC(=O)O)NC(=O)[C@@H]1CCCN1C(=O)[C@H](C)NC(=O)CC(C)C)C(=O)N[C@@H](CCC(N)=O)C(=O)N[C@@H](CCCNC(=N)N)C(=O)N[C@@H](Cc1ccc(O)cc1)C(=O)N[C@@H](Cc1ccc(O)cc1)C(=O)N[C@H](C(=O)N[C@@H](CO)C(=O)N[C@@H](CC(C)C)C(=O)N[C@@H](CCCNC(=N)N)C(=O)N[C@@H](Cc1c[nH]cn1)C(=O)N[C@@H](Cc1ccc(O)cc1)C(=O)N[C@@H](Cc1ccc(O)cc1)C(=O)N[C@@H](CC(N)=O)C(=O)N[C@@H](Cc1c[nH]c2ccccc12)C(=O)N[C@@H](CC(C)C)C(=O)N[C@H](C(=O)N[C@@H](CCCNC(=N)N)C(=O)N[C@@H](CCC(N)=O)C(=O)N[C@@H](CCCNC(=N)N)C(=O)N[C@@H](Cc1ccc(O)cc1)C(N)=O)[C@@H](C)O)C(C)C
B4: Compound 242 (peptide)
peptide: Isovaleryl-APEK([AEEA-AEEA-γGlu-C18 diacid])PEADASAEELQRYYVSLRHYYNWLTRQRY-NH2
SMILES: CC(C)CC(=O)N[C@@H](C)C(=O)N1CCC[C@H]1C(=O)N[C@@H](CCC(=O)O)C(=O)N[C@@H](CCCCNC(=O)COCCOCCNC(=O)COCCOCCNC(=O)CC[C@H](NC(=O)CCCCCCCCCCCCCCCCC(=O)O)C(=O)O)C(=O)N1CCC[C@H]1C(=O)N[C@@H](CCC(=O)O)C(=O)N[C@@H](C)C(=O)N[C@@H](CC(=O)O)C(=O)N[C@@H](C)C(=O)N[C@@H](CO)C(=O)N[C@@H](C)C(=O)N[C@@H](CCC(=O)O)C(=O)N[C@@H](CCC(=O)O)C(=O)N[C@@H](CC(C)C)C(=O)N[C@@H](CCC(N)=O)C(=O)N[C@@H](CCCNC(=N)N)C(=O)N[C@@H](Cc1ccc(O)cc1)C(=O)N[C@@H](Cc1ccc(O)cc1)C(=O)N[C@H](C(=O)N[C@@H](CO)C(=O)N[C@@H](CC(C)C)C(=O)N[C@@H](CCCNC(=N)N)C(=O)N[C@@H](Cc1c[nH]cn1)C(=O)N[C@@H](Cc1ccc(O)cc1)C(=O)N[C@@H](Cc1ccc(O)cc1)C(=O)N[C@@H](CC(N)=O)C(=O)N[C@@H](Cc1c[nH]c2ccccc12)C(=O)N[C@@H](CC(C)C)C(=O)N[C@H](C(=O)N[C@@H](CCCNC(=N)N)C(=O)N[C@@H](CCC(N)=O)C(=O)N[C@@H](CCCNC(=N)N)C(=O)N[C@@H](Cc1ccc(O)cc1)C(N)=O)[C@@H](C)O)C(C)C
B5: Compound 243 (peptide)
peptide: Isovaleryl-APEK([AEEA-AEEA-γGlu-C18 diacid])PEEEASPEELQQYYVSLRHYYNWLTRQRY-NH2
SMILES: CC(C)CC(=O)N[C@@H](C)C(=O)N1CCC[C@H]1C(=O)N[C@@H](CCC(=O)O)C(=O)N[C@@H](CCCCNC(=O)COCCOCCNC(=O)COCCOCCNC(=O)CC[C@H](NC(=O)CCCCCCCCCCCCCCCCC(=O)O)C(=O)O)C(=O)N1CCC[C@H]1C(=O)N[C@@H](CCC(=O)O)C(=O)N[C@@H](CCC(=O)O)C(=O)N[C@@H](CCC(=O)O)C(=O)N[C@@H](C)C(=O)N[C@@H](CO)C(=O)N1CCC[C@H]1C(=O)N[C@@H](CCC(=O)O)C(=O)N[C@@H](CCC(=O)O)C(=O)N[C@@H](CC(C)C)C(=O)N[C@@H](CCC(N)=O)C(=O)N[C@@H](CCC(N)=O)C(=O)N[C@@H](Cc1ccc(O)cc1)C(=O)N[C@@H](Cc1ccc(O)cc1)C(=O)N[C@H](C(=O)N[C@@H](CO)C(=O)N[C@@H](CC(C)C)C(=O)N[C@@H](CCCNC(=N)N)C(=O)N[C@@H](Cc1c[nH]cn1)C(=O)N[C@@H](Cc1ccc(O)cc1)C(=O)N[C@@H](Cc1ccc(O)cc1)C(=O)N[C@@H](CC(N)=O)C(=O)N[C@@H](Cc1c[nH]c2ccccc12)C(=O)N[C@@H](CC(C)C)C(=O)N[C@H](C(=O)N[C@@H](CCCNC(=N)N)C(=O)N[C@@H](CCC(N)=O)C(=O)N[C@@H](CCCNC(=N)N)C(=O)N[C@@H](Cc1ccc(O)cc1)C(N)=O)[C@@H](C)O)C(C)C
B6: Compound 244 (peptide)
peptide: Isovaleryl-APEK([AEEA-AEEA-γGlu-C18 diacid])PEEDAEPAELQRYYVSLRHYYNWLTRQRY-NH2
SMILES: CC(C)CC(=O)N[C@@H](C)C(=O)N1CCC[C@H]1C(=O)N[C@@H](CCC(=O)O)C(=O)N[C@@H](CCCCNC(=O)COCCOCCNC(=O)COCCOCCNC(=O)CC[C@H](NC(=O)CCCCCCCCCCCCCCCCC(=O)O)C(=O)O)C(=O)N1CCC[C@H]1C(=O)N[C@@H](CCC(=O)O)C(=O)N[C@@H](CCC(=O)O)C(=O)N[C@@H](CC(=O)O)C(=O)N[C@@H](C)C(=O)N[C@@H](CCC(=O)O)C(=O)N1CCC[C@H]1C(=O)N[C@@H](C)C(=O)N[C@@H](CCC(=O)O)C(=O)N[C@@H](CC(C)C)C(=O)N[C@@H](CCC(N)=O)C(=O)N[C@@H](CCCNC(=N)N)C(=O)N[C@@H](Cc1ccc(O)cc1)C(=O)N[C@@H](Cc1ccc(O)cc1)C(=O)N[C@H](C(=O)N[C@@H](CO)C(=O)N[C@@H](CC(C)C)C(=O)N[C@@H](CCCNC(=N)N)C(=O)N[C@@H](Cc1c[nH]cn1)C(=O)N[C@@H](Cc1ccc(O)cc1)C(=O)N[C@@H](Cc1ccc(O)cc1)C(=O)N[C@@H](CC(N)=O)C(=O)N[C@@H](Cc1c[nH]c2ccccc12)C(=O)N[C@@H](CC(C)C)C(=O)N[C@H](C(=O)N[C@@H](CCCNC(=N)N)C(=O)N[C@@H](CCC(N)=O)C(=O)N[C@@H](CCCNC(=N)N)C(=O)N[C@@H](Cc1ccc(O)cc1)C(N)=O)[C@@H](C)O)C(C)C

target: T1, human neuropeptide Y2 receptor; assay: radioligand competition (125I-PYY(1-36)), hNPY2R membranes
Summary of the method: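 Commercial human Y2 receptor membranes (0.5 μg protein/well) were incubated with peptide for 2 h at room temperature in 50 mM HEPES, 5 mM MgCl₂, 1 mM CaCl₂, pH 7.4, with 0.2% ovalbumin. Bound radioligand was separated on PEI-soaked GF/C filters and counted by scintillation, and IC₅₀ came from nonlinear sigmoidal regression.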

**Q.** How did the Ki turn out when B1 was run?
**A.** 1.95 nM

**Q.** How did the Ki turn out when B2 was run?
**A.** 25.1 nM

**Q.** For B3, which Ki is on record?
**A.** 2.95 nM

**Q.** For B4, which Ki is on record?
**A.** 0.81 nM

**Q.** With B5 as the binder, how does the Ki read?
**A.** 2.07 nM

**Q.** For B6, which Ki is on record?
**A.** 1.84 nM
